The results in this text go back to US20060235215A1 (published 2006).

T1: O. sativa Putative 14-3-3 Protein, prey clone aa 53-259 (Oryza sativa, UniProt Q06967 53-259)
T1 construct: prey; AD fusion; input trait library; four clones; also called Os008938-3209; PN20215
T1 sequence: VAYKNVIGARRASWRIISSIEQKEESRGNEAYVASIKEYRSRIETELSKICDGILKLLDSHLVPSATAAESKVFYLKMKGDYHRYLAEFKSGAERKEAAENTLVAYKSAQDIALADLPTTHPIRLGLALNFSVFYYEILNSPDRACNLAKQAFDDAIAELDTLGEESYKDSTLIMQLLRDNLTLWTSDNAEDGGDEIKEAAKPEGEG

T2: Novel Protein PN22154, Similar to A. thaliana Glutamyl Aminopeptidase, prey clone aa 390-562 (Oryza sativa, UniProt Q6Z6L4 390-562)
T2 construct: prey; AD fusion; input trait library; also called OsPN22154
T2 sequence: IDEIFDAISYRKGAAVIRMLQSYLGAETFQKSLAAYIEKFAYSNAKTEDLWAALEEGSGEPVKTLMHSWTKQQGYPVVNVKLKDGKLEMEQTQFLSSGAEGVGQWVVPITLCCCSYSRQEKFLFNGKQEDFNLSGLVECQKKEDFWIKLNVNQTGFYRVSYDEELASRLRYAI

T3: O. sativa Cellulose Synthase Catalytic Subunit, RSW1-Like, prey clone aa 411-489 (Oryza sativa, UniProt A2Y0X2 411-489)
T3 construct: prey; AD fusion; input trait library; also called OsCS; PN19707
T3 sequence: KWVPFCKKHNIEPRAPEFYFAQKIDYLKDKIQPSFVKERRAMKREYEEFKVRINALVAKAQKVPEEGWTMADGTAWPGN

T4: O. sativa Catalase A Isozyme, prey clone aa 332-433 (Oryza sativa, UniProt P0C549 332-433)
T4 construct: prey; AD fusion; input trait library; also called OsCATA; PN20899
T4 sequence: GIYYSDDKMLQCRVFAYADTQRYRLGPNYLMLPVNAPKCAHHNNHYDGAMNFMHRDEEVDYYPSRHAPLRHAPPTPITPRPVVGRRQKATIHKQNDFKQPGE

T5: Novel Protein PN23485, Similar to Hordeum vulgare Coproporphyrinogen III Oxidase, chloroplast precursor, prey … (Oryza sativa, UniProt Q7XPL2 165-318)
T5 construct: prey; AD fusion; output trait library; also called OsPN23485
T5 sequence: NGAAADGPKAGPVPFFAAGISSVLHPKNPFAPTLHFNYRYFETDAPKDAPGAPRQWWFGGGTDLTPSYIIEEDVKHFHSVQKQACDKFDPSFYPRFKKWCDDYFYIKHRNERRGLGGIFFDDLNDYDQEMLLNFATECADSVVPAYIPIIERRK

T6: Beta-Expansin EXPB2, prey clone aa 80-207 (Oryza sativa, UniProt O24230 80-207)
T6 construct: prey; AD fusion; input trait library; also called OsEXPB2; PN19902
T6 sequence: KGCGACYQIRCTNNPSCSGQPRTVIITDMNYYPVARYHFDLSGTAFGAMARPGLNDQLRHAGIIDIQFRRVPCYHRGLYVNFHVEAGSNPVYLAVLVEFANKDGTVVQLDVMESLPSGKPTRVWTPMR

T7: Novel Protein 23053, Fragment, Similar to Arabidopsis Putative Na+-Dependent Inorganic Phosphate … (Oryza sativa, UniProt Q8W0H5 141-320)
T7 construct: prey; AD fusion; input trait library; two clones; also called OsPN23053
T7 sequence: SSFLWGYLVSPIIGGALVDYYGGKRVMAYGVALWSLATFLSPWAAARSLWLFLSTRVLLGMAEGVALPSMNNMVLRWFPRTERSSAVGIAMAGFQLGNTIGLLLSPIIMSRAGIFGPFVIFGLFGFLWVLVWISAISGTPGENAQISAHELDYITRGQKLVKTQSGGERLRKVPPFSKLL

T8: Beta-Expansin EXPB2, prey clone aa 80-218 (Oryza sativa, UniProt O24230 80-218)
T8 construct: prey; AD fusion; input trait library; two clones; also called OsEXPB2; PN19902
T8 sequence: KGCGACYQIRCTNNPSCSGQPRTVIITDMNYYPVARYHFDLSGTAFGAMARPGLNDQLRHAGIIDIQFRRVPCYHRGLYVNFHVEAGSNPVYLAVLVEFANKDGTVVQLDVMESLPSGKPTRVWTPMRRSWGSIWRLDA

B1: O. sativa Chilling-Inducible Protein CAA90866, bait clone aa 100-250 (other)
chain: GEMTERVAQEDRIPVLKASQDHLKEFISICEALELISEDELEISRQKNLIPWQIEEHRRLHGSSAKRLQKQSSRIKERKERRRRHESSCLSAPIELGGDLLRMMEKEREGMVSYYLIGSIEGFDLLDMLKKEEEIVPAVKEGKRRMVMHLL
notes: bait; also called OsCAA90866; PN20311
B2: Hypothetical Protein 006819-2510, Similar to Hemerocallis Senescence-Related Protein 5, bait fragment aa 1-150 (other)
chain: MAFRLSNSLLGILNAVTFLLSVPVLGGGIWLATRADGTECERYFSAPVIAFGVFLLLVSLAGLVGACCRVNCLLWFYLVAMFVLIVVLFCFTVFAFVVTNKGAGEAVSGRGYKEYRLGDYSNWLQKRMENSKNWNRIRSCLQDSKVCKKL
notes: bait; also called Os006819-2510; PN20462
B3: O. sativa Chitinase, Class III, bait fragment aa 10-200 (enzyme)
chain: YIGAQFTGVRFSDVPVNPGLSFHFILAFAIDYFMATQSSKPAPANGVFAPYWDTANLSPAAVAAAKAAHPNLSVILALGGDTVQNTGVNATFAPTSSVDAWVRNAADSVSGLIDAYGLDGVDVDYEHFAAGVDTFVECIGRLLTELKARHPNIATSIAPFEHPVVQRYYQPLWRRYAGVIDYVNFQFYGYG
notes: bait; also called OsCHIB1; PN19651
B4: Novel Protein PN23226, Callose synthase, prey clone aa 345-432 (other)
chain: WFMSNQETSFVTIGQRVLANPLRVRFHYGHPDIFDRLFHLTRGGVSKASKIINLSEDIFAGFNSTLREGNVTHHEYMQVGKGRDVGLN
notes: prey; AD fusion; output trait library; also called OsPN23226
B5: Hypothetical Protein 006819-2510, Similar to Hemerocallis Senescence-Related Protein 5, bait fragment aa 1-273 (other)
chain: MAFRLSNSLLGILNAVTFLLSVPVLGGGIWLATRADGTECERYFSAPVIAFGVFLLLVSLAGLVGACCRVNCLLWFYLVAMFVLIVVLFCFTVFAFVVTNKGAGEAVSGRGYKEYRLGDYSNWLQKRMENSKNWNRIRSCLQDSKVCKKLQDKNWDRTQFFKADLSPLESGCCKPPSSCNFLYVSGTNWTKVPTNSSDPDCNTWVDDGTQLCYNCQSCKAGAVATLKRDWKRVAVVCIVFLVFIVIVYSLGCCAFRNNRRDNRGAYRGAAWKG
notes: as for B2
B6: O. sativa Defender Against Apoptotic Death 1, bait clone aa 1-115 (other)
chain: MPRATSDAKLLIQSLGKAYAATPTNLKIIDLYVVFAVATALIQVVYMGIVGSFPFNSFLSGVLSCIGTAVLAVCLRIQVNKDNKEFKDLPPERAFADFVLCNLVLHLVIMNFLG
notes: bait; text says OsDAD1 has 114 aa; also called OsDAD1; PN20251
B7: O. sativa Defender Against Apoptotic Death 1, bait clone aa 30-115 (other)
chain: DLYVVFAVATALIQVVYMGIVGSFPFNSFLSGVLSCIGTAVLAVCLRIQVNKDNKEFKDLPPERAFADFVLCNLVLHLVIMNFLG
notes: as for B6

Assay in all cases: yeast two-hybrid
Assay [1] concerns the target T1, O. sativa Putative 14-3-3 Protein, prey ….
Assay [2] has as its target T9, O. sativa Histone Deacetylase HD1, prey clone aa 90-221 (Oryza sativa, UniProt Q7Y0Y8 90-221).
T9 construct: prey; AD fusion; output trait library; also called OsAAK01712; PN24059

The target in assay [3] is T2, Novel Protein PN22154, Similar to A. …. The procedure:
(§1) Yeast carrying the target gene construct was combined with yeast carrying the activation domain library. The two yeast strains mated to form diploid yeast and were plated on media that selected for expression of one or more Ga14p-responsive reporter genes. Thus, both hybrid proteins (i.e., the target “bait” protein and the activation domain “prey” protein) were expressed in a yeast reporter strain where an interaction between the test proteins results in transcription of the reporter genes […]. Colonies that arose after incubation were selected for further characterization. The activation domain plasmid was isolated from each colony obtained in the two-hybrid search. The sequence of the insert in this construct was obtained by sequence analysis (e.g., Sanger's dideoxy nucleotide chain termination method; see Ausubel et al., 1988, including updates up to 2002). Thus, the identity of positives obtained from these searches was determined by sequence analysis against proprietary and public (e.g., GENBANK®) nucleic acid and protein databases.
(§2) This example provides newly characterized rice proteins interacting with a rice chitinase, class III (OsCHIB1), and with rice cellulose synthase catalytic subunit, RSW1-like (OsCS). An automated, high-throughput yeast two-hybrid assay technology (provided by Myriad Genetics Inc., Salt Lake City, Utah) was used to search for protein interactions with the chitinase and cellulose synthase bait proteins.

Assay [4] has as its target T3, O. sativa Cellulose Synthase Catalytic …. The procedure:
as §1, §2

Assay [5] deals with T4, O. sativa Catalase A Isozyme, prey …. The procedure:
as §1, §2

Assay [6] has as its target B5.
Assay [7] concerns the target T5, Novel Protein PN23485, Similar to ….
Assay [8] has as its target T6, Beta-Expansin EXPB2, prey clone aa ….
Assay [9] concerns the target T7, Novel Protein 23053, Fragment, Similar ….
The target in assay [10] is T8, Beta-Expansin EXPB2, prey clone aa ….

T9 sequence (Q7Y0Y8 90-221): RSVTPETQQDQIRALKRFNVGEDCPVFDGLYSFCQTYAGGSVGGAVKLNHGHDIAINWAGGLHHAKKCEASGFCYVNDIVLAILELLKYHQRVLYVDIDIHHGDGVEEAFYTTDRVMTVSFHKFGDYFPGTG

Consider B1, for which the binding result in [1] is given as “binds”. B2: in assay [2], the binding result was “binds”. In the case of B3, the binding result in [3], in assay [4] and in [5] was “binds” each time. Consider B4, for which the binding result in assay [6] is “binds”. Turning to B5, in assay [7], the binding result is “binds”. In the case of B6, the binding result in assay [8] is listed as “binds”.

In the case of B7, the binding result in assay [9] and in assay [10] was “binds” each time.
